Abundance fitness data for 167 variants are collected here from the Human Domainome abundance scans (Beltran et al. 2025).

First the molecules themselves.
B1: Pre-mRNA-processing factor 40 homolog B, residues 274 to 332; numbered along this chain, Q6NWY9 (parent)
chain: SNREKAKQAFKELLRDKAVPSNASWEQAMKMVVTDPRYSALPKLSEKKQAFNAYKAQRE

± gives the uncertainty stated by the source.

The data set covers variants of B1. The data set can be described thus: abundance fitness (aPCA) (normalised: wild type 0, dead -1); higher = more abundant; growth selection in yeast, the domain comes from the species named. The settings on record: Homo sapiens.
As for F10S, the abundance fitness was -0.254 ± 0.072.

With F10G, the abundance fitness is -0.277 ± 0.059.

Regarding F10W, the abundance fitness is -0.869 ± 0.11.

Turning to F10L, the abundance fitness was -0.424 ± 0.11.

As to F10I, the abundance fitness was -0.25 ± 0.22.

Regarding F10M, the abundance fitness is -0.4 ± 0.11.

In the case of F10T, the abundance fitness was -0.048 ± 0.1.

Consider F10Y, for which the abundance fitness is -0.282 ± 0.16.

As to F10C, the abundance fitness is -0.611 ± 0.12.

As for D16S, the abundance fitness was -0.486 ± 0.069.

D16Y: the abundance fitness was -0.888 ± 0.13.

Take D16K: the abundance fitness is -0.699 ± 0.12.

Turning to D16P, the abundance fitness was -0.875 ± 0.12.

Take D16R: the abundance fitness was -0.7 ± 0.064.

As for D16Q, the abundance fitness is -0.443 ± 0.12.

For the variant D16W, the abundance fitness is -0.579 ± 0.1.

Regarding D16N, the abundance fitness is -1.23 ± 0.19.

As to D16V, the abundance fitness was -0.716 ± 0.073.

On to D16M, for which the abundance fitness is -1.03 ± 0.17.

In the case of D16A, the abundance fitness is -0.461 ± 0.079.

For D16H, the abundance fitness is -1.03 ± 0.18.

Turning to D16C, the abundance fitness was -0.933 ± 0.1.

D16T: the abundance fitness was -0.351 ± 0.085.

D16L: the abundance fitness is -0.584 ± 0.075.

Take D16F: the abundance fitness is -1.05 ± 0.11.

As for A6W, the abundance fitness is -0.948 ± 0.13.

Take A6D: the abundance fitness was -0.002 ± 0.09.

In the case of A6H, the abundance fitness was -0.201 ± 0.16.

For A6G, the abundance fitness was -0.05 ± 0.055.

Regarding A6E, the abundance fitness amounted to 0.172 ± 0.11.

On to A6M, for which the abundance fitness was -0.539 ± 0.13.

As for A6V, the abundance fitness was -0.331 ± 0.072.

Regarding A6L, the abundance fitness was -0.566 ± 0.077.

With A6S, the abundance fitness was -0.194 ± 0.084.

Regarding A6K, the abundance fitness is -0.243 ± 0.14.

For the variant A6I, the abundance fitness is -0.153 ± 0.16.

In the case of A6Y, the abundance fitness was -0.56 ± 0.13.

In the case of A6R, the abundance fitness is -0.381 ± 0.059.

A6T: the abundance fitness was -0.394 ± 0.13.

Consider A6Q, for which the abundance fitness worked out at 0.009 ± 0.12.

Consider K5S, for which the abundance fitness is -0.055 ± 0.071.

K5D: the abundance fitness was -0.012 ± 0.12.

As for K5L, the abundance fitness was -0.177 ± 0.072.

As to K5I, the abundance fitness is -0.171 ± 0.19.

For the variant K5Q, the abundance fitness was -0.07 ± 0.14.

Regarding K5P, the abundance fitness is -0.409 ± 0.11.

For K5E, the abundance fitness is -0.049 ± 0.09.

With K5Y, the abundance fitness is -0.179 ± 0.14.

With K5T, the abundance fitness is -0.042 ± 0.095.

On to K5H, for which the abundance fitness is -0.203 ± 0.14.

Take K5G: the abundance fitness is -0.187 ± 0.066.

Regarding K5V, the abundance fitness is -0.063 ± 0.066.

For the variant K5M, the abundance fitness was -0.024 ± 0.096.

For K5N, the abundance fitness was -0.081 ± 0.17.

Turning to K5C, the abundance fitness was -0.134 ± 0.088.

K5W: the abundance fitness is -0.553 ± 0.081.

Consider K5R, for which the abundance fitness was -0.193 ± 0.057.

Regarding K11P, the abundance fitness was -0.322 ± 0.13.

As for K11H, the abundance fitness is -0.17 ± 0.32.

Regarding K11E, the abundance fitness turned out to be 0.004 ± 0.15.

Take K11D: the abundance fitness is -0.386 ± 0.17.

As to K11Y, the abundance fitness is -0.155 ± 0.24.

Take K11N: the abundance fitness was -0.137 ± 0.16.

As for K11R, the abundance fitness was -0.03 ± 0.067.

K11G: the abundance fitness was -0.16 ± 0.07.

Turning to K11W, the abundance fitness stood at 0.082 ± 0.1.

On to K11F, for which the abundance fitness amounted to 0.061 ± 0.12.

With K11A, the abundance fitness was 0.145 ± 0.084.

Take K11C: the abundance fitness stood at 0.061 ± 0.11.

As to K11Q, the abundance fitness came to 0.343 ± 0.13.

For K11L, the abundance fitness amounted to 0.159 ± 0.1.

As to K11T, the abundance fitness stood at 0.217 ± 0.11.

For the variant K11I, the abundance fitness is 0.233 ± 0.12.

Take K11S: the abundance fitness was -0.001 ± 0.1.

On to L13V, for which the abundance fitness was -0.511 ± 0.066.

Regarding L13Q, the abundance fitness was -0.286 ± 0.14.

Take L13K: the abundance fitness is -0.388 ± 0.11.

Consider L13C, for which the abundance fitness is -0.244 ± 0.12.

Take L13D: the abundance fitness was -0.262 ± 0.1.

L13F: the abundance fitness is -0.668 ± 0.13.

Take L13N: the abundance fitness is -0.482 ± 0.11.

As for L13A, the abundance fitness is -0.327 ± 0.063.

On to L13R, for which the abundance fitness was -0.491 ± 0.066.

As to L13M, the abundance fitness turned out to be 0.122 ± 0.097.

As for L13E, the abundance fitness is -0.377 ± 0.074.

On to L13I, for which the abundance fitness is -1.12 ± 0.28.

Regarding L13Y, the abundance fitness was -0.559 ± 0.16.

As to L13H, the abundance fitness was -0.411 ± 0.13.

With L13G, the abundance fitness is -0.331 ± 0.056.

As for L13T, the abundance fitness was -0.48 ± 0.093.

In the case of L13W, the abundance fitness is -1.02 ± 0.12.

As to K17S, the abundance fitness was -0.365 ± 0.071.

With K17Y, the abundance fitness was -0.189 ± 0.18.

Consider K17P, for which the abundance fitness was -0.573 ± 0.13.

Consider K17H, for which the abundance fitness was -0.239 ± 0.2.

On to K17A, for which the abundance fitness is -0.106 ± 0.072.

Regarding K17E, the abundance fitness is -0.437 ± 0.097.

For K17M, the abundance fitness was -0.038 ± 0.11.

For K17C, the abundance fitness was -0.38 ± 0.12.

As for K17T, the abundance fitness was -0.429 ± 0.091.

As for K17R, the abundance fitness was -0.107 ± 0.061.

With K17D, the abundance fitness was -0.72 ± 0.13.

Regarding K17F, the abundance fitness is -0.146 ± 0.099.

For K17G, the abundance fitness was -0.599 ± 0.075.

On to K17Q, for which the abundance fitness was -0.213 ± 0.13.

Consider K17L, for which the abundance fitness is -0.605 ± 0.089.

For K17N, the abundance fitness is -0.07 ± 0.15.

K17V: the abundance fitness is -0.525 ± 0.068.

Consider K17I, for which the abundance fitness was -0.651 ± 0.15.

Regarding E4I, the abundance fitness was -0.025 ± 0.18.

As for E4P, the abundance fitness is -0.566 ± 0.13.

As to E4L, the abundance fitness is -0.23 ± 0.081.

On to E4T, for which the abundance fitness is -0.433 ± 0.1.

For the variant E4K, the abundance fitness was -0.368 ± 0.11.

E4N: the abundance fitness is -0.074 ± 0.14.

On to E4M, for which the abundance fitness is -0.41 ± 0.1.

As to E4A, the abundance fitness is -1.5 ± 0.17.

As to E4G, the abundance fitness is -0.374 ± 0.054.

With E4W, the abundance fitness is -0.642 ± 0.11.

On to E4Q, for which the abundance fitness is -0.233 ± 0.084.

On to E4F, for which the abundance fitness is -0.294 ± 0.14.

Regarding E4V, the abundance fitness was -1.08 ± 0.093.

As to E4R, the abundance fitness was -0.45 ± 0.064.

Turning to E4C, the abundance fitness was -0.668 ± 0.17.

Take E4S: the abundance fitness is -0.156 ± 0.071.

For the variant E4H, the abundance fitness is -0.082 ± 0.23.

As to E4D, the abundance fitness was -0.01 ± 0.099.

On to E4Y, for which the abundance fitness is -0.457 ± 0.21.

For P20A, the abundance fitness was -0.451 ± 0.066.

With P20E, the abundance fitness is -0.364 ± 0.064.

On to P20D, for which the abundance fitness is -0.395 ± 0.14.

With P20C, the abundance fitness was -0.59 ± 0.095.

Consider E12W, for which the abundance fitness was -1.15 ± 0.17.

Take E12A: the abundance fitness was -0.231 ± 0.075.

As for E12G, the abundance fitness is -0.491 ± 0.061.

As for E12Y, the abundance fitness is -0.817 ± 0.27.

For the variant E12R, the abundance fitness is -0.62 ± 0.073.

Turning to E12L, the abundance fitness is -0.632 ± 0.091.

As to E12C, the abundance fitness is -0.602 ± 0.13.

Turning to E12Q, the abundance fitness was -0.249 ± 0.1.

On to E12D, for which the abundance fitness is -0.152 ± 0.12.

As to E12K, the abundance fitness was -0.469 ± 0.11.

E12F: the abundance fitness is -0.718 ± 0.18.

On to E12S, for which the abundance fitness was -0.283 ± 0.083.

As for E12V, the abundance fitness was -0.705 ± 0.077.

On to E12M, for which the abundance fitness was -0.705 ± 0.14.

Take E12P: the abundance fitness is -0.988 ± 0.14.

In the case of E12H, the abundance fitness was -0.297 ± 0.17.

E12T: the abundance fitness was -0.301 ± 0.13.

Turning to E12N, the abundance fitness was -0.128 ± 0.14.

Consider S1P, for which the abundance fitness is -0.478 ± 0.25.

As to S1N, the abundance fitness is -0.042 ± 0.18.

For S1L, the abundance fitness stood at 0.045 ± 0.18.

As to S1R, the abundance fitness is -0.084 ± 0.13.

As for S1D, the abundance fitness was -0.357 ± 0.48.

Turning to S1K, the abundance fitness worked out at 0.135 ± 0.18.

For the variant S1E, the abundance fitness was -0.206 ± 0.24.

As for S1A, the abundance fitness was -0.015 ± 0.15.

Take S1M: the abundance fitness is -0.364 ± 0.38.

On to S1Y, for which the abundance fitness was found to be 0.089 ± 0.23.

Take S1T: the abundance fitness is -0.032 ± 0.15.

Turning to S1V, the abundance fitness was found to be 0.13 ± 0.14.

For the variant S1C, the abundance fitness came to 0.042 ± 0.16.

Consider S1I, for which the abundance fitness was -0.075 ± 0.28.

On to S1W, for which the abundance fitness was -0.417 ± 0.092.

With S1G, the abundance fitness was 0.07 ± 0.087.

As for S1F, the abundance fitness amounted to 0.15 ± 0.27.
